Where no end group is shown, it is not given here. [ ]: non-standard residue; d: D form. Aib = CC(C)(N)C(=O)O
Experiments:
[1] = target: human glucagon receptor (GCGR) (human, UniProt P47871 26-477); test: cell-based or functional assay
[2] = target: human GLP-1 receptor (GLP-1R) (human, UniProt P43220 24-463); test: cell-based or functional assay
Sequence of human GLP-1 receptor (GLP-1R) (P43220 24-463): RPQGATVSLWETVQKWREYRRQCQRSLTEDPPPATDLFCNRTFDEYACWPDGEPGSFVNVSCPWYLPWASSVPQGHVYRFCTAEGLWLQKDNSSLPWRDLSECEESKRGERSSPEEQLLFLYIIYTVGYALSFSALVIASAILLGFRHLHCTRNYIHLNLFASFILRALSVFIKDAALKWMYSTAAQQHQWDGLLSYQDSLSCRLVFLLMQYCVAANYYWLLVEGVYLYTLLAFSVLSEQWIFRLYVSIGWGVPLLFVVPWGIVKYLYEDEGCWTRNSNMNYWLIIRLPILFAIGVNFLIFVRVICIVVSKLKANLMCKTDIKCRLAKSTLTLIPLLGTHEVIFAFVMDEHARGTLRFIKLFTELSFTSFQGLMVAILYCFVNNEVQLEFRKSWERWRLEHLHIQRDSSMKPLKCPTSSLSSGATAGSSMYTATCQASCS

Binder | hGCGR pEC50 (cAMP) [1] [pEC50] | hGLP1 pEC50 (cAMP) [2] [pEC50]
YSHGTFTSDYSKYLD[Aib]KRAQEFV[Aib]WLEDEEPSSGAPPPS-OH (N-terminus assumed; SMILES CC(C)C[C@H](NC(=O)[C@H](Cc1ccc(O)cc1)NC(=O)[C@H](CCCCN)NC(=O)[C@H](CO)NC(=O)[C@H](Cc1ccc(O)cc1)NC(=O)[C@H](CC(=O)O)NC(=O)[C@H](CO)NC(=O)[C@@H](NC(=O)[C@H](Cc1ccccc1)NC(=O)[C@@H](NC(=O)CNC(=O)[C@H](Cc1c[nH]cn1)NC(=O)[C@H](CO)NC(=O)[C@@H](N)Cc1ccc(O)cc1)[C@@H](C)O)[C@@H](C)O)C(=O)N[C@@H](CC(=O)O)C(=O)NC(C)(C)C(=O)N[C@@H](CCCCN)C(=O)N[C@@H](CCCNC(=N)N)C(=O)N[C@@H](C)C(=O)N[C@@H](CCC(N)=O)C(=O)N[C@@H](CCC(=O)O)C(=O)N[C@@H](Cc1ccccc1)C(=O)N[C@H](C(=O)NC(C)(C)C(=O)N[C@@H](Cc1c[nH]c2ccccc12)C(=O)N[C@@H](CC(C)C)C(=O)N[C@@H](CCC(=O)O)C(=O)N[C@@H](CC(=O)O)C(=O)N[C@@H](CCC(=O)O)C(=O)N[C@@H](CCC(=O)O)C(=O)N1CCC[C@H]1C(=O)N[C@@H](CO)C(=O)N[C@@H](CO)C(=O)NCC(=O)N[C@@H](C)C(=O)N1CCC[C@H]1C(=O)N1CCC[C@H]1C(=O)N1CCC[C@H]1C(=O)N[C@@H](CO)C(=O)O)C(C)C) [Compound A10] | 11.3 | < 9
YSHGTFTSDYSKYLD[Aib]ARAQEFV[Aib]WLEDEPSSGAPPPS-OH (N-terminus assumed; SMILES CC(C)C[C@H](NC(=O)[C@H](Cc1ccc(O)cc1)NC(=O)[C@H](CCCCN)NC(=O)[C@H](CO)NC(=O)[C@H](Cc1ccc(O)cc1)NC(=O)[C@H](CC(=O)O)NC(=O)[C@H](CO)NC(=O)[C@@H](NC(=O)[C@H](Cc1ccccc1)NC(=O)[C@@H](NC(=O)CNC(=O)[C@H](Cc1c[nH]cn1)NC(=O)[C@H](CO)NC(=O)[C@@H](N)Cc1ccc(O)cc1)[C@@H](C)O)[C@@H](C)O)C(=O)N[C@@H](CC(=O)O)C(=O)NC(C)(C)C(=O)N[C@@H](C)C(=O)N[C@@H](CCCNC(=N)N)C(=O)N[C@@H](C)C(=O)N[C@@H](CCC(N)=O)C(=O)N[C@@H](CCC(=O)O)C(=O)N[C@@H](Cc1ccccc1)C(=O)N[C@H](C(=O)NC(C)(C)C(=O)N[C@@H](Cc1c[nH]c2ccccc12)C(=O)N[C@@H](CC(C)C)C(=O)N[C@@H](CCC(=O)O)C(=O)N[C@@H](CC(=O)O)C(=O)N[C@@H](CCC(=O)O)C(=O)N1CCC[C@H]1C(=O)N[C@@H](CO)C(=O)N[C@@H](CO)C(=O)NCC(=O)N[C@@H](C)C(=O)N1CCC[C@H]1C(=O)N1CCC[C@H]1C(=O)N1CCC[C@H]1C(=O)N[C@@H](CO)C(=O)O)C(C)C) [Compound A7] | 11.9 | < 9
WSQGTFTSDYSKYLD[Aib]KRAQEFV[Aib]WLEDEPSSGAPPPS-OH (N-terminus assumed; SMILES CC(C)C[C@H](NC(=O)[C@H](Cc1ccc(O)cc1)NC(=O)[C@H](CCCCN)NC(=O)[C@H](CO)NC(=O)[C@H](Cc1ccc(O)cc1)NC(=O)[C@H](CC(=O)O)NC(=O)[C@H](CO)NC(=O)[C@@H](NC(=O)[C@H](Cc1ccccc1)NC(=O)[C@@H](NC(=O)CNC(=O)[C@H](CCC(N)=O)NC(=O)[C@H](CO)NC(=O)[C@@H](N)Cc1c[nH]c2ccccc12)[C@@H](C)O)[C@@H](C)O)C(=O)N[C@@H](CC(=O)O)C(=O)NC(C)(C)C(=O)N[C@@H](CCCCN)C(=O)N[C@@H](CCCNC(=N)N)C(=O)N[C@@H](C)C(=O)N[C@@H](CCC(N)=O)C(=O)N[C@@H](CCC(=O)O)C(=O)N[C@@H](Cc1ccccc1)C(=O)N[C@H](C(=O)NC(C)(C)C(=O)N[C@@H](Cc1c[nH]c2ccccc12)C(=O)N[C@@H](CC(C)C)C(=O)N[C@@H](CCC(=O)O)C(=O)N[C@@H](CC(=O)O)C(=O)N[C@@H](CCC(=O)O)C(=O)N1CCC[C@H]1C(=O)N[C@@H](CO)C(=O)N[C@@H](CO)C(=O)NCC(=O)N[C@@H](C)C(=O)N1CCC[C@H]1C(=O)N1CCC[C@H]1C(=O)N1CCC[C@H]1C(=O)N[C@@H](CO)C(=O)O)C(C)C) [Compound A6] | 11.7 | 5.3
YSHGTFTSDYSKYLD[Aib]KRAQEFV[Aib]WLEDEGAPPPS-OH (N-terminus assumed; SMILES CC(C)C[C@H](NC(=O)[C@H](Cc1ccc(O)cc1)NC(=O)[C@H](CCCCN)NC(=O)[C@H](CO)NC(=O)[C@H](Cc1ccc(O)cc1)NC(=O)[C@H](CC(=O)O)NC(=O)[C@H](CO)NC(=O)[C@@H](NC(=O)[C@H](Cc1ccccc1)NC(=O)[C@@H](NC(=O)CNC(=O)[C@H](Cc1c[nH]cn1)NC(=O)[C@H](CO)NC(=O)[C@@H](N)Cc1ccc(O)cc1)[C@@H](C)O)[C@@H](C)O)C(=O)N[C@@H](CC(=O)O)C(=O)NC(C)(C)C(=O)N[C@@H](CCCCN)C(=O)N[C@@H](CCCNC(=N)N)C(=O)N[C@@H](C)C(=O)N[C@@H](CCC(N)=O)C(=O)N[C@@H](CCC(=O)O)C(=O)N[C@@H](Cc1ccccc1)C(=O)N[C@H](C(=O)NC(C)(C)C(=O)N[C@@H](Cc1c[nH]c2ccccc12)C(=O)N[C@@H](CC(C)C)C(=O)N[C@@H](CCC(=O)O)C(=O)N[C@@H](CC(=O)O)C(=O)N[C@@H](CCC(=O)O)C(=O)NCC(=O)N[C@@H](C)C(=O)N1CCC[C@H]1C(=O)N1CCC[C@H]1C(=O)N1CCC[C@H]1C(=O)N[C@@H](CO)C(=O)O)C(C)C) [Compound A12] | 13.2 | < 9
YSHGTFTSDYSKYLD[Aib]KRAQEFV[Aib]WLEDEPSSGAPPPS-NH2 (N-terminus assumed; SMILES CC(C)C[C@H](NC(=O)[C@H](Cc1ccc(O)cc1)NC(=O)[C@H](CCCCN)NC(=O)[C@H](CO)NC(=O)[C@H](Cc1ccc(O)cc1)NC(=O)[C@H](CC(=O)O)NC(=O)[C@H](CO)NC(=O)[C@@H](NC(=O)[C@H](Cc1ccccc1)NC(=O)[C@@H](NC(=O)CNC(=O)[C@H](Cc1c[nH]cn1)NC(=O)[C@H](CO)NC(=O)[C@@H](N)Cc1ccc(O)cc1)[C@@H](C)O)[C@@H](C)O)C(=O)N[C@@H](CC(=O)O)C(=O)NC(C)(C)C(=O)N[C@@H](CCCCN)C(=O)N[C@@H](CCCNC(=N)N)C(=O)N[C@@H](C)C(=O)N[C@@H](CCC(N)=O)C(=O)N[C@@H](CCC(=O)O)C(=O)N[C@@H](Cc1ccccc1)C(=O)N[C@H](C(=O)NC(C)(C)C(=O)N[C@@H](Cc1c[nH]c2ccccc12)C(=O)N[C@@H](CC(C)C)C(=O)N[C@@H](CCC(=O)O)C(=O)N[C@@H](CC(=O)O)C(=O)N[C@@H](CCC(=O)O)C(=O)N1CCC[C@H]1C(=O)N[C@@H](CO)C(=O)N[C@@H](CO)C(=O)NCC(=O)N[C@@H](C)C(=O)N1CCC[C@H]1C(=O)N1CCC[C@H]1C(=O)N1CCC[C@H]1C(=O)N[C@@H](CO)C(N)=O)C(C)C) [Compound A8] | 12.3 | < 9
YSHGTFTSDYSKYLD[Aib]KRAQEFV[Aib]WLEDEEEPSSGAPPPS-OH (N-terminus assumed; SMILES CC(C)C[C@H](NC(=O)[C@H](Cc1ccc(O)cc1)NC(=O)[C@H](CCCCN)NC(=O)[C@H](CO)NC(=O)[C@H](Cc1ccc(O)cc1)NC(=O)[C@H](CC(=O)O)NC(=O)[C@H](CO)NC(=O)[C@@H](NC(=O)[C@H](Cc1ccccc1)NC(=O)[C@@H](NC(=O)CNC(=O)[C@H](Cc1c[nH]cn1)NC(=O)[C@H](CO)NC(=O)[C@@H](N)Cc1ccc(O)cc1)[C@@H](C)O)[C@@H](C)O)C(=O)N[C@@H](CC(=O)O)C(=O)NC(C)(C)C(=O)N[C@@H](CCCCN)C(=O)N[C@@H](CCCNC(=N)N)C(=O)N[C@@H](C)C(=O)N[C@@H](CCC(N)=O)C(=O)N[C@@H](CCC(=O)O)C(=O)N[C@@H](Cc1ccccc1)C(=O)N[C@H](C(=O)NC(C)(C)C(=O)N[C@@H](Cc1c[nH]c2ccccc12)C(=O)N[C@@H](CC(C)C)C(=O)N[C@@H](CCC(=O)O)C(=O)N[C@@H](CC(=O)O)C(=O)N[C@@H](CCC(=O)O)C(=O)N[C@@H](CCC(=O)O)C(=O)N[C@@H](CCC(=O)O)C(=O)N1CCC[C@H]1C(=O)N[C@@H](CO)C(=O)N[C@@H](CO)C(=O)NCC(=O)N[C@@H](C)C(=O)N1CCC[C@H]1C(=O)N1CCC[C@H]1C(=O)N1CCC[C@H]1C(=O)N[C@@H](CO)C(=O)O)C(C)C) [Compound A11] | 11.2 | < 9
YSHGTFTSDYSKYLD[Aib]KRAQEFV[Aib]WLEEEPSSGAPPPS-OH (N-terminus assumed; SMILES CC(C)C[C@H](NC(=O)[C@H](Cc1ccc(O)cc1)NC(=O)[C@H](CCCCN)NC(=O)[C@H](CO)NC(=O)[C@H](Cc1ccc(O)cc1)NC(=O)[C@H](CC(=O)O)NC(=O)[C@H](CO)NC(=O)[C@@H](NC(=O)[C@H](Cc1ccccc1)NC(=O)[C@@H](NC(=O)CNC(=O)[C@H](Cc1c[nH]cn1)NC(=O)[C@H](CO)NC(=O)[C@@H](N)Cc1ccc(O)cc1)[C@@H](C)O)[C@@H](C)O)C(=O)N[C@@H](CC(=O)O)C(=O)NC(C)(C)C(=O)N[C@@H](CCCCN)C(=O)N[C@@H](CCCNC(=N)N)C(=O)N[C@@H](C)C(=O)N[C@@H](CCC(N)=O)C(=O)N[C@@H](CCC(=O)O)C(=O)N[C@@H](Cc1ccccc1)C(=O)N[C@H](C(=O)NC(C)(C)C(=O)N[C@@H](Cc1c[nH]c2ccccc12)C(=O)N[C@@H](CC(C)C)C(=O)N[C@@H](CCC(=O)O)C(=O)N[C@@H](CCC(=O)O)C(=O)N[C@@H](CCC(=O)O)C(=O)N1CCC[C@H]1C(=O)N[C@@H](CO)C(=O)N[C@@H](CO)C(=O)NCC(=O)N[C@@H](C)C(=O)N1CCC[C@H]1C(=O)N1CCC[C@H]1C(=O)N1CCC[C@H]1C(=O)N[C@@H](CO)C(=O)O)C(C)C) [Compound A9] | 13 | < 9

From US20180009871A1 (INTARCIA THERAPEUTICS, published 2018)
